This note sets out measurements from article PMC4204856, “Application of a Novel Alkali-Tolerant Thermostable DyP-Type Peroxidase from Saccharomonospora viridis DSM 43017 in Biobleaching of Eucalyptus Kraft Pulp” (PLoS ONE, 2014).

Substrate in series [1]: CCN(CC)c1ccc(C(=C2C=CC(=[N+](CC)CC)C=C2)c2ccccc2)cc1
Nature of the series: purified protein. The class given is biochemical, Saccharomonospora viridis. Particulars: H2O2 co-substrate (0.1 mM in all tests), 50 mM phosphate pH 7.0, standard assay 60°C, temperature of kinetics not stated.

Substrate in series [2]: Nc1c(S(=O)(=O)O)cc(Nc2cccc(S(=O)(=O)CCOS(=O)(=O)O)c2)c2c1C(=O)c1ccccc1C2=O
Nature of the series: purified protein. The class given is biochemical, Saccharomonospora viridis. As to conditions: H2O2 co-substrate (0.1 mM in all tests), 50 mM phosphate pH 7.0, standard assay 60°C, temperature of kinetics not stated.

B1: SviDyP (Saccharomonospora viridis) (protein)
chain: MKGRRFGRRAFLATGAAALGGAAALGGRELFTGDGGADGRDRPDRGDIGRATVDFHGERQAGVATPAQAFATFVAFDLLDGVDREALIRWMRVWTDDIERLTRGAPALTDTEPELALLPARLTVTVGFGPGFLAAAGREELRPSWLAPLPEFPIDRLREEFSGGDLVAQVCADDEVTVAHAVRVLTKQARSFARPRWVQRGFRNTPGAVPEGATMRNLMGQLDGTRNLRPGPDDRLIWISDGPEWLRGGTGMVVRRIAMNLDTWDELDRPARELVIGRRLDNGAPLTGRHEHDEPDLEAVDERGLSVIPMFAHIRRARSDNPDERFLRRSYNYDDPPEPGELSNSGLVFVTFQADIEAQFTPIQRRLAELDSLNDWTTPIGSAVFAVPRGCRPGEYLGQPLLEA
notes: Ni-NTA and Sephadex G-75; tag removal not mentioned; ~45 kDa on SDS-PAGE
Consider B1, for which the values for the Km in the series “purified protein [1]” and in “purified protein [2]” were 58.87 ± 4.7 µM and 210.2 ± 16.5 µM, respectively.

Broadly, the Km is the substrate concentration at which the rate is half of its maximum.
